Biological target: T1, Bovine, dephosphorylated, Myelin Basic Protein (MBP), P02687
T1 chain: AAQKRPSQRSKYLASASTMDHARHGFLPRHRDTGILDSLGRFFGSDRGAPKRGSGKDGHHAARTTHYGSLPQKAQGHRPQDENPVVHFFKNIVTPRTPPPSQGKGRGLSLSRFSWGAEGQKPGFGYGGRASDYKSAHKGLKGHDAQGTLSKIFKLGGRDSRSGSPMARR

B1: PRKX (protein)
chain: MEAPGLAQAAAAESDSRKVAEETPDGAPALCPSPEALSPEPPVYSLQDFDTLATVGTGTFGRVHLVKEKTAKHFFALKVMSIPDVIRLKQEQHVHNEKSVLKEVSHPFLIRLFWTWHDERFLYMLMEYVPGGELFSYLRNRGRFSSTTGLFYSAEIICAIEYLHSKEIVYRDLKPENILLDRDGHIKLTDFGFAKKLVDRTWTLCGTPEYLAPEVIQSKGHGRAVDWWALGILIFEMLSGFPPFFDDNPFGIYQKILAGKIDFPRHLDFHVKDLIKKLLVVDRTRRLGNMKNGANDVKHHRWFRSVDWEAVPQRKLKPPIVPKIAGDGDTSNFETYPENDWDTAAPVPQKDLEIFKNF
  MBP Kinase Activity: Negative

B2: PRKCN(PKD3) (protein)
chain: MSANNSPPSAQKSVLPTAIPAVLPAASPCSSPKTGLSARLSNGSFSAPSLTNSRGSVHTVSFLLQIGLTRESVTIEAQELSLSAVKDLVCSIVYQKFPECGFFGMYDKILLFRHDMNSENILQLITSADEIHEGDLVEVVLSALATVEDFQIRPHTLYVHSYKAPTFCDYCGEMLWGLVRQGLKCEGCGLNYHKRCAFKIPNNCSGVRKRRLSNVSLPGPGLSVPRPLQPEYVALPSEESHVHQEPSKRIPSWSGRPIWMEKMVMCRVKVPHTFAVHSYTRPTICQYCKRLLKGLFRQGMQCKDCKFNCHKRCASKVPRDCLGEVTFNGEPSSLGTDTDIPMDIDNNDINSDSSRGLDDTEEPSPPEDKMFFLDPSDLDVERDEEAVKTISPSTSNNIPLMRVVQSIKHTKRKSSTMVKEGWMVHYTSRDNLRKRHYWRLDSKCLTLFQNESGSKYYKEIPLSEILRISSPRDFTNISQGSNPHCFEIITDTMVYFVGENNGDSSHNPVLAATGVGLDVAQSWEKAIRQALMPVTPQASVCTSPGQGKDHKDLSTSISVSNCQIQENVDISTVYQIFADEVLGSGQFGIVYGGKHRKTGRDVAIKVIDKMRFPTKQESQLRNEVAILQNLHHPGIVNLECMFETPERVFVVMEKLHGDMLEMILSSEKSRLPERITKFMVTQILVALRNLHFKNIVHCDLKPENVLLASAEPFPQVKLCDFGFARIIGEKSFRRSVVGTPAYLAPEVLRSKGYNRSLDMWSVGVIIYVSLSGTFPFNEDEDINDQIQNAAFMYPPNPWREISGEAIDLINNLLQVKMRKRYSVDKSLSHPWLQDYQTWLDLREFETRIGERYITHESDDARWEIHAYTHNLVYPKHFIMAPNPDDMEEDP
  MBP Kinase Activity: Weak

B3: ROCK2 (protein)
chain: MSRPPPTGKMPGAPETAPGDGAGASRQRKLEALIRDPRSPINVESLLDGLNSLVLDLDFPALRKNKNIDNFLNRYEKIVKKIRGLQMKAEDYDVVKVIGRGAFGEVQLVRHKASQKVYAMKLLSKFEMIKRSDSAFFWEERDIMAFANSPWVVQLFYAFQDDRYLYMVMEYMPGGDLVNLMSNYDVPEKWAKFYTAEVVLALDAIHSMGLIHRDVKPDNMLLDKHGHLKLADFGTCMKMDETGMVHCDTAVGTPDYISPEVLKSQGGDGFYGRECDWWSVGVFLYEMLVGDTPFYADSLVGTYSKIMDHKNSLCFPEDAEISKHAKNLICAFLTDREVRLGRNGVEEIRQHPFFKNDQWHWDNIRETAAPVVPELSSDIDSSNFDDIEDDKGDVETFPIPKAFVGNQLPFIGFTYYRENLLLSDSPSCRETDSIQSRKNEESQEIQKKLYTLEEHLSNEMQAKEELEQKCKSVNTRLEKTAKELEEEITLRKSVESALRQLEREKALLQHKNAEYQRKADHEADKKRNLENDVNSLKDQLEDLKKRNQNSQI
  MBP Kinase Activity: Strong

B4: ROCK1 (protein)
chain: MSTGDSFETRFEKMDNLLRDPKSEVNSDCLLDGLDALVYDLDFPALRKNKNIDNFLSRYKDTINKIRDLRMKAEDYEVVKVIGRGAFGEVQLVRHKSTRKVYAMKLLSKFEMIKRSDSAFFWEERDIMAFANSPWVVQLFYAFQDDRYLYMVMEYMPGGDLVNLMSNYDVPEKWARFYTAEVVLALDAIHSMGFIHRDVKPDNMLLDKSGHLKLADFGTCMKMNKEGMVRCDTAVGTPDYISPEVLKSQGGDGYYGRECDWWSVGVFLYEMLVGDTPFYADSLVGTYSKIMNHKNSLTFPDDNDISKEAKNLICAFLTDREVRLGRNGVEEIKRHLFFKNDQWAWETLRDTVAPVVPDLSSDIDTSNFDDLEEDKGEEETFPIPKAFVGNQLPFVGFTYYSNRRYLSSANPNDNRTSSNADKSLQESLQKTIYKLEEQLHNEMQLKDEMEQKCRTSNIKLDKIMKELDEEGNQRRNLESTVSQIEKEKMLLQHRINEYQRKAEQENEKRRNVENEVSTLKDQLEDLKKVSQNSQL
  MBP Kinase Activity: Strong

B5: PRKD2(PKD2) (protein)
chain: MATAPSYPAGLPGSPGPGSPPPPGGLELQSPPPLLPQIPAPGSGVSFHIQIGLTREFVLLPAASELAHVKQLACSIVDQKFPECGFYGLYDKILLFKHDPTSANLLQLVRSSGDIQEGDLVEVVLSASATFEDFQIRPHALTVHSYRAPAFCDHCGEMLFGLVRQGLKCDGCGLNYHKRCAFSIPNNCSGARKRRLSSTSLASGHSVRLGTSESLPCTAEELSRSTTELLPRRPPSSSSSSSASSYTGRPIELDKMLLSKVKVPHTFLIHSYTRPTVCQACKKLLKGLFRQGLQCKDCKFNCHKRCATRVPNDCLGEALINGDVPMEEATDFSEADKSALMDESEDSGVIPGSHSENALHASEEEEGEGGKAQSSLGYIPLMRVVQSVRHTTRKSSTTLREGWVVHYSNKDTLRKRHYWRLDCKCITLFQNNTTNRYYKEIPLSEILTVESAQNFSLVPPGTNPHCFEIVTANATYFVGEMPGGTPGGPSGQGAEAARGWETAIRQALMPVILQDAPSAPGHAPHRQASLSISVSNSQIQENVDIATVYQIFPDEVLGSGQFGVVYGGKHRKTGRDVAVKVIDKLRFPTKQESQLRNEVAILQSLRHPGIVNLECMFETPEKVFVVMEKLHGDMLEMILSSEKGRLPERLTKFLITQILVALRHLHFKNIVHCDLKPENVLLASADPFPQVKLCDFGFARIIGEKSFRRSVVGTPAYLAPEVLLNQGYNRSLDMWSVGVIMYVSLSGTFPFNEDEDINDQIQNAAFMYPASPWSHISAGAIDLINNLLQVKMRKRYSVDKSLSHPWLQEYQTWLDLRELEGKMGERYITHESDDARWEQFAAEHPLPGSGLPTDRDLGGACPPQDHDMQGLAERISVL
  MBP Kinase Activity: Strong

B6: EPHB3 (protein)
chain: CLRKQRHGSDSEYTEKLQQYIAPGMKVYIDPFTYEDPNEAVREFAKEIDVSCVKIEEVIGAGEFGEVCRGRLKQPGRREVFVAIKTLKVGYTERQRRDFLSEASIMGQFDHPNIIRLEGVVTKSRPVMILTEFMENCALDSFLRLNDGQFTVIQLVGMLRGIAAGMKYLSEMNYVHRDLAARNILVNSNLVCKVSDFGLSRFLEDDPSDPTYTSSLGGKIPIRWTAPEAIAYRKFTSASDVWSYGIVMWEVMSYGERPYWDMSNQDVINAVEQDYRLPPPMDCPTALHQLMLDCWVRDRNLRPKFSQIVNTLDKLIRNAASLKVIASAQSGMSQPLLDRTVPDYTTFTTVGDWLDAIKMGRYKESFVSAGFASFDLVAQMTAEDLLRIGVTLAGHQKKILSSIQDMRLQMNQTLPVQV
  MBP Kinase Activity: Strong

B7: RPS6KA1(RSK1) (protein)
chain: MPLAQLKEPWPLMELVPLDPENGQTSGEEAGLQPSKDEGVLKEISITHHVKAGSEKADPSHFELLKVLGQGSFGKVFLVRKVTRPDSGHLYAMKVLKKATLKVRDRVRTKMERDILADVNHPFVVKLHYAFQTEGKLYLILDFLRGGDLFTRLSKEVMFTEEDVKFYLAELALGLDHLHSLGIIYRDLKPENILLDEEGHIKLTDFGLSKEAIDHEKKAYSFCGTVEYMAPEVVNRQGHSHSADWWSYGVLMFEMLTGSLPFQGKDRKETMTLILKAKLGMPQFLSTEAQSLLRALFKRNPANRLGSGPDGAEEIKRHVFYSTIDWNKLYRREIKPPFKPAVAQPDDTFYFDTEFTSRTPKDSPGIPPSAGAHQLFRGFSFVATGLMEDDGKPRAPQAPLHSVVQQLHGKNLVFSDGYVVKETIGVGSYSECKRCVHKATNMEYAVKVIDKSKRDPSEEIEILLRYGQHPNIITLKDVYDDGKHVYLVTELMRGGELLDKILRQKFFSEREASFVLHTIGKTVEYLHSQGVVHRDLKPSNILYVDESGNPECLRICDFGFAKQLRAENGLLMTPCYTANFVAPEVLKRQGYDEGCDIWSLGILLYTMLAGYTPFANGPSDTPEEILTRIGSGKFTLSGGNWNTVSETAKDLVSKMLHVDPHQRLTAKQVLQHPWVTQKDKLPQSQLSHQDLQLVKGAMAATYSALNSSKPTPQLKPIESSILAQRRVRKLPSTTL
  MBP Kinase Activity: Strong

B8: PRKD1(PKD) (protein)
chain: MSAPPVLRPPSPLLPVAAAAAAAAAALVPGSGPGPAPFLAPVAAPVGGISFHLQIGLSREPVLLLQDSSGDYSLAHVREMACSIVDQKFPECGFYGMYDKILLFRHDPTSENILQLVKAASDIQEGDLIEVVLSASATFEDFQIRPHALFVHSYRAPAFCDHCGEMLWGLVRQGLKCEGCGLNYHKRCAFKIPNNCSGVRRRRLSNVSLTGVSTIRTSSAELSTSAPDEPLLQKSPSESFIGREKRSNSQSYIGRPIHLDKILMSKVKVPHTFVIHSYTRPTVCQYCKKLLKGLFRQGLQCKDCRFNCHKRCAPKVPNNCLGEVTINGDLLSPGAESDVVMEEGSDDNDSERNSGLMDDMEEAMVQDAEMAMAECQNDSGEMQDPDPDHEDANRTISPSTSNNIPLMRVVQSVKHTKRKSSTVMKEGWMVHYTSKDTLRKRHYWRLDSKCITLFQNDTGSRYYKEIPLSEILSLEPVKTSALIPNGANPHCFEITTANVVYYVGENVVNPSSPSPNNSVLTSGVGADVARMWEIAIQHALMPVIPKGSSVGTGTNLHRDISVSISVSNCQIQENVDISTVYQIFPDEVLGSGQFGIVYGGKHRKTGRDVAIKIIDKLRFPTKQESQLRNEVAILQNLHHPGVVNLECMFETPERVFVVMEKLHGDMLEMILSSEKGRLPEHITKFLITQILVALRHLHFKNIVHCDLKPENVLLASADPFPQVKLCDFGFARIIGEKSFRRSVVGTPAYLAPEVLRNKGYNRSLDMWSVGVIIYVSLSGTFPFNEDEDIHDQIQNAAFMYPPNPWKEISHEAIDLINNLLQVKMRKRYSVDKTLSHPWLQDYQTWLDLRELECKIGERYITHESDDLRWEKYAGEQGLQYPTHLINPSASHSDTPETEETEMKALGERVSIL
  MBP Kinase Activity: Weak
